The values that follow come from patent US20010029022.

Data set [1] addresses GST-HPV16 E7 (UniProt P03129).
The subject of data set [2] is histone H1.
Data set [3] has as its target His-p27 (UniProt P46527).

Sequence of GST-HPV16 E7 (P03129 whole entry): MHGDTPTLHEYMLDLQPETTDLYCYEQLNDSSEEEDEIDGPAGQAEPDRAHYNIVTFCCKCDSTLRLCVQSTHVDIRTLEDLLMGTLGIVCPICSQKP
Sequence of His-p27 (P46527 whole entry, looked up): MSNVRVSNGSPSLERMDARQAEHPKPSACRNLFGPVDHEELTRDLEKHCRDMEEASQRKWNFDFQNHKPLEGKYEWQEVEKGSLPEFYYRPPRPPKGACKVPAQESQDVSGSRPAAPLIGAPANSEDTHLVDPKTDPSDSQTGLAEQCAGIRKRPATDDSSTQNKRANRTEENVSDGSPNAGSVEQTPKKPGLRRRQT

With CDK5 complexed with p25, in data set [1], the “H1 phosphorylation by CDK5 complexed with p25, increase over controls” value is “a 4.5-fold increase over controls”.
As for cyclin A/CDK2 complex, the “Km for histone H1 (cyclinA/CDK2 pre-incubated with HPV16-E7, Michaelis-Menten fit)” value in data set [2] was “a Km of 1.1+/-0.2 µM for histone H1”.
Regarding cyclin E/CDK2 complex, in data set [1], the “cyclin E/CDK2 phosphorylation of purified MBP-HPV 18 E1 fusion protein” value is reported as “stimulated 2.3-fold by the addition of HPV 16E7”; the “cyclinE/CDK2 kinase activity with histoneH1 as the substrate, increase over controls” value was “a large increase (26-fold and 13-fold) over controls”; the “cyclinE/CDK2 kinase activity with pRb as the substrate, increase over background” value is 1.9-fold increase over background. Moreover, in data set [3], the “cyclin E/CDK2 phosphorylation of MBP-HPV 18 E1” value is “The phosphorylation of E1 was completely inhibited by the addition of p27 even in the presence of excess GST-16E7”.
